Source: US20180230233A1 (Genentech, published 2018)
Each block holds one binder with its values, some of them ahead of it.

What was measured:
human tryptase beta 3 [1] = target: T1, human tryptase beta 3 (human, UniProt P20231 31-275); test: cell-based or functional assay
human tryptase beta 3 [2] = target: T1, human tryptase beta 3; test: SPR, protocol as for tryptase beta 1
Protocol: (§1) In this experiment, all the humanized variants were expressed as IgG by transient transfection of 293 cells. IgG was purified with protein G affinity chromatography. The affinity of each variant for recombinant His-tagged human tryptase beta 1 monomer (SEQ ID NO: 128) was determined by SPR analysis using a BIAcore® T200. BIAcore® Series S CM5 sensor chips were immobilized with monoclonal mouse anti-human IgG (Fc) antibody (Human antibody capture kit from GE Healthcare) and anti-tryptase variants were subsequently captured on each flow cell. Serial 3-fold dilutions of the human tryptase beta 1 monomer were injected at a flow rate of 30 μl/min. Each sample was analyzed with 3 min association and 10 min dissociation. After each injection, the chip was regenerated using 3 M MgCl₂. Binding response was corrected by subtracting the response units (RU) from a flow cell capturing an irrelevant IgG at similar density. A 1:1 Languir model of simultaneous fitting of kₒₙ and koff was used for kinetics analysis.

[3] = target: T2, recombinant human tryptase beta 1 tetramer (wild type, active) (human, UniProt Q15661 31-275); test: ELISA on biotinylated human tryptase beta 1 captured on NeutrAvidin, with heparin to keep the tetramer
T2 construct: Non-covalent homotetramer made by enterokinase removal of the His6 tag in the presence of heparin or dextran sulfate; In the huE104.v1 crystal the active sites were modified with Glu-Gly-Arg-chloromethyl ketone; also called WT tetrameric tryptase; active tetrameric tryptase beta 1
T2 sequence (Q15661 31-275): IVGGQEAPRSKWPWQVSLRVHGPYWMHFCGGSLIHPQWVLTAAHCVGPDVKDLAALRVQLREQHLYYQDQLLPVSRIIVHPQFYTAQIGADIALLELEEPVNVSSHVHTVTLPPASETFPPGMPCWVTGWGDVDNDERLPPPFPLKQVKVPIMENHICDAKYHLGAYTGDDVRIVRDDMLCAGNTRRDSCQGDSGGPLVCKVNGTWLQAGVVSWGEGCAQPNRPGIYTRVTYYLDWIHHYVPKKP

[4] = target: T3, recombinant His-tagged human tryptase beta 1 monomer (human, UniProt Q15661 31-275); test: SPR, tryptase beta 1 monomer
T3 construct: also called His6-tagged tryptase monomer; human tryptase b1 monomer
T3 sequence (Q15661 other isoform, or with tags, fused parts or gaps): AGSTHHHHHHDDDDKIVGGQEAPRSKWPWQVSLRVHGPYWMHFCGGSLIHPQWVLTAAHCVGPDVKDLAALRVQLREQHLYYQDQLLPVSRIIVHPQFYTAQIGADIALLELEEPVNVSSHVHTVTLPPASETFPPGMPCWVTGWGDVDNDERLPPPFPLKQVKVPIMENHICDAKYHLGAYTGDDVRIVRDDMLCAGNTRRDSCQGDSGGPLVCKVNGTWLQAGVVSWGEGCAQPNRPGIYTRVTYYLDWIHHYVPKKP
Protocol: The assay can use a BIAcore® T200 or an equivalent device. Briefly, BIAcore® Series S CM5 sensor chips (or equivalent sensor chips) are immobilized with monoclonal mouse anti-human IgG (Fc) antibody and anti-tryptase antibodies are subsequently captured on the flow cell. Serial 3-fold dilutions of the human tryptase beta 1 monomer are injected at a flow rate of 30 μl/min. Each sample is analyzed with 3 min association and 10 min dissociation. The assay is performed at 25° C. After each injection, the chip is regenerated using 3 M MgCl₂. Binding response is corrected by subtracting the response units (RU) from a flow cell capturing an irrelevant IgG at similar density. A 1:1 Languir model of simultaneous fitting of kₒₙ and koff is used for kinetics analysis.
as §1

[5] = target: T2, recombinant human tryptase beta 1 …; test: cell-based or functional assay
[6] = target: T3, recombinant His-tagged human tryptase …; test: SPR, tryptase beta 1 monomer; remark: listed apart in the source

T1 sequence (P20231 other isoform, or with tags, fused parts or gaps limits assumed): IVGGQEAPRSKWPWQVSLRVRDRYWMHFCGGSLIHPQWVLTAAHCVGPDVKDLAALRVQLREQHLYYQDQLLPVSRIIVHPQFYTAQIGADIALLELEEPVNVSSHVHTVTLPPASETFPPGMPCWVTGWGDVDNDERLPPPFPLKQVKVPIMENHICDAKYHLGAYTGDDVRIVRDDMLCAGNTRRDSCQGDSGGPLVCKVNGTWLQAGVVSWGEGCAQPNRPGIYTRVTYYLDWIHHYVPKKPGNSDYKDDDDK

IC50 (nM), tryptase enzymatic assay (human tryptase beta 3 [1]): 2.8 nM
Kd (human tryptase beta 3 [2]): 0.13 nM
B1: huE104.v2 IgG4 (S228P) (antibody)
heavy: not shown
light: DIQMTQSPSSLSASVGDRVTITCQSIKSVYNNRLGWYQQKPGKAPKLLIYETSILTSGVPSRFSGSGSGTDFTLTISSLQPEDFATYYCAGGFDRSGDTTFGQGTKVEIKRTVAAPSVFIFPPSDEQLKSGTASVVCLLNNFYPREAKVQWKVDNALQSGNSQESVTEQDSKDSTYSLSSTLTLSKADYEKHKVYACEVTHQGLSSPVTKSFNRGEC
notes: also called huE104.v2 Control

binding result [3]: binds
B2: rabbit anti-tryptase monoclonal antibody E104 (antibody, V domains shown)
VH: QSLEESGGGLFKPTDTLTLTCTVSRFSLIGYAITWVRQSPENGLEWIGGISSAATTFYSSWAKSRSTITRNTNENTVTLKMTSLTAADTATYFCARDPRGYGAALDRLDLWGQGTLVTVSS
VL: AAVLTQTPASVSAAVGGTVSISCQSIKSVYNNRLGWYQQKPGQPPKLLIYETSILTSGVPSRFKGSGSETQFTLTISDVQCDDAATYFCAGGFDRSGDTTFGGGTEVVVK
notes: Rabbit hybridoma antibody with rabbit kappa light chain; also called rab.E104; clone E104

KD as fold increase compared to hu31A.v11 wild type [4]: 80 fold
IC50 as fold increase compared to hu31A.v11 wild type [5]: 2.5 fold
fold faster off-rate (Koff) compared to wild-type hu31A.v11 [6]: ~100 fold
B3: hu31A.v11 W100F (antibody, name in Kabat numbering, V domains shown)
VH: EVQLVESGGGLVQPGGSLRLSCAASGFTFSDYGMVWVRQAPGKGLEWVAFISSGSSTVYYADTMKGRFTISRDNSKNTLYLQMNSLRAEDTAVYYCTRRNYDDFYFDVWGQGTLVTVSS
VL: DIQMTQSPSSLSASVGDRVTITCSASSSVTYMYWYQQKPGKSPKPWIYRTSDLASGVPSRFSGSGSGTDFTLTISSLQPEDFATYYCQHYHSYPLTFGQGTKVEIK
notes: also called W100F variant
